The target in experiment [1] is VH1VL1-CD8ATD-CD137CSD-CD3zSSD fusion. The experiment is described as follows: cell-based or functional assay.
Experiment [2] has as its target VH2VL1-CD8ATD-CD137CSD-CD3zSSD fusion. The experiment is described as follows: cell-based or functional assay.
Experiment [3] addresses VL1VH3-CD8ATD-CD137CSD-CD3zSSD fusion. Put plainly: cell-based or functional assay.
Experiment [4] addresses VH3VL1-CD8ATD-CD137CSD-CD3zSSD fusion. The experiment is described as follows: cell-based or functional assay.
Experiment [5] deals with VH1VL1-CD8ATD-CD137CSD-CD3zSSD fusion. The experiment is described as follows: cell-based or functional assay. The source holds these as a separate data set.
In experiment [6] the target is VL1VH3-CD8ATD-CD137CSD-CD3zSSD fusion. Put plainly: cell-based or functional assay. The source holds these as a separate data set.
The target in experiment [7] is VH3VL1-CD8ATD-CD137CSD-CD3zSSD fusion. The experiment is described as follows: cell-based or functional assay. This is another data set of the same source.
Experiment [8] has as its target T1, VH1VL1-CD8ATD-CD137CSD-CD3zSSD fusion.
T1 construct: Chimeric antigen receptor on Jurkat NFAT reporter T cells; also called VH1VL1 P329G-CAR
Put plainly: NFAT-luciferase reporter assay, anti-P329G CAR Jurkat cells with WSUDLCL2 (CD20+) target cells.
Experimental: (§1) Binding of the CAR to an immobilized adapter molecule (e.g. a tumor antigen bound adapter molecule) leads to CAR crosslinking resulting in T cell activation and in the expression of luciferase. […] The 384 well plate was centrifuged for 1 min at 300 g and RT and incubated at 37° C. and 5% CO₂ in a humidity atmosphere. After 7 h incubation 20% of the final volume of ONE-Glo™ Luciferase Assay (E6120, Promega) was added, and plates were centrifuged for 1 min at 350×g. Afterwards, the relative luminescence units (RLU) per s/well were measured immediately using a Tecan microplate reader. Concentration-response curves were fitted and EC₅₀ values were calculated using GraphPadPrism version 7. As p value the New England Journal of Medicine style was used as listed in GraphPadPrism 7. Meaning *=P≤0,033; **=P≤0,002; ***=P≤0,001.

Experiment [9] deals with T2, VH2VL1-CD8ATD-CD137CSD-CD3zSSD fusion.
T2 construct: Chimeric antigen receptor on Jurkat NFAT reporter T cells; also called VH2VL1 P329G-CAR
The experiment is described as above.
Experimental: as §1

The target in experiment [10] is T3, VL1VH3-CD8ATD-CD137CSD-CD3zSSD fusion.
T3 construct: Chimeric antigen receptor with scFv in VL-linker-VH orientation on Jurkat NFAT reporter T cells; the entry may be incomplete
The experiment is described as above.
Experimental: as §1

Experiment [11] deals with T4, VH3VL1-CD8ATD-CD137CSD-CD3zSSD fusion.
T4 construct: Chimeric antigen receptor with humanized anti-P329G scFv (VH-linker-VL), expressed on Jurkat NFAT reporter T cells; expression construct carried a T2A-GFP reporter
The description is as above.
Experimental: as §1

The next experiment concerns the target murinPG-Fab-CAR. Put plainly: cell-based or functional assay.
The target in experiment [12] is T1, VH1VL1-CD8ATD-CD137CSD-CD3zSSD fusion. Put plainly: cell-based or functional assay. This is another data set of the same source.
The target of experiment [13] is T3, VL1VH3-CD8ATD-CD137CSD-CD3zSSD fusion. The experiment is described as follows: cell-based or functional assay. This is another data set of the same source.
Experiment [14] concerns the target T1, VH1VL1-CD8ATD-CD137CSD-CD3zSSD fusion. The experiment is described as follows: NFAT-luciferase reporter assay, anti-P329G CAR Jurkat cells with WSUDLCL2 (CD20+) target cells. This is another data set of the same source.
Experimental: as §1
Experiment [15] has as its target T2, VH2VL1-CD8ATD-CD137CSD-CD3zSSD fusion. The description is as above. This is another data set of the same source.
Experimental: as §1
Experiment [16] deals with T3, VL1VH3-CD8ATD-CD137CSD-CD3zSSD fusion. Described as above. The source holds these as a separate data set.
Experimental: as §1
Experiment [17] deals with T4, VH3VL1-CD8ATD-CD137CSD-CD3zSSD fusion. Described as above. The source holds these as a separate data set.
Experimental: as §1

Four molecules from US20240269176A1 (Hoffmann-La Roche, published 2024) can be followed below.

Read-outs that look alike come from different tables or passages of the source.

T1 sequence (chain, as listed by the source): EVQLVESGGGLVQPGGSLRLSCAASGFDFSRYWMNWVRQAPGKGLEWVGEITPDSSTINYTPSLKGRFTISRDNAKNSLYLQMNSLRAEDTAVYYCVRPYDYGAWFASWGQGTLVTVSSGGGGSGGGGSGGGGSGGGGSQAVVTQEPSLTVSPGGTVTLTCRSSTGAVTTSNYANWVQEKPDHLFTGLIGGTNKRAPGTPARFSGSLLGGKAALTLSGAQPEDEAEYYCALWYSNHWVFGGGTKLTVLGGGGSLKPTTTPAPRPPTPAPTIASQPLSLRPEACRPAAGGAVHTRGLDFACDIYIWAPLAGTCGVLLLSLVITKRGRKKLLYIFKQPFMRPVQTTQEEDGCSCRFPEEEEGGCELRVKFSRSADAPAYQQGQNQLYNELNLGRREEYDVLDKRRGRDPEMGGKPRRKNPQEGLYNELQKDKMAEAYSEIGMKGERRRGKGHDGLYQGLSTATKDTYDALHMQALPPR
T3 sequence (chain, as listed by the source): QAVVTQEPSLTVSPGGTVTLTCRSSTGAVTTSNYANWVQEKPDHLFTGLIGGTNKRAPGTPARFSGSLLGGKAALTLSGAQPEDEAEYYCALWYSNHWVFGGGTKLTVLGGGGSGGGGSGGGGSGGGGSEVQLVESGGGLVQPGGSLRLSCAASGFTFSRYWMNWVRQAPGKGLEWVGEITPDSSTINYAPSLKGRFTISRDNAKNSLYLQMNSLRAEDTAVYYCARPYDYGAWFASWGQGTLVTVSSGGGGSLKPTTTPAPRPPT
T2 sequence (chain, as listed by the source): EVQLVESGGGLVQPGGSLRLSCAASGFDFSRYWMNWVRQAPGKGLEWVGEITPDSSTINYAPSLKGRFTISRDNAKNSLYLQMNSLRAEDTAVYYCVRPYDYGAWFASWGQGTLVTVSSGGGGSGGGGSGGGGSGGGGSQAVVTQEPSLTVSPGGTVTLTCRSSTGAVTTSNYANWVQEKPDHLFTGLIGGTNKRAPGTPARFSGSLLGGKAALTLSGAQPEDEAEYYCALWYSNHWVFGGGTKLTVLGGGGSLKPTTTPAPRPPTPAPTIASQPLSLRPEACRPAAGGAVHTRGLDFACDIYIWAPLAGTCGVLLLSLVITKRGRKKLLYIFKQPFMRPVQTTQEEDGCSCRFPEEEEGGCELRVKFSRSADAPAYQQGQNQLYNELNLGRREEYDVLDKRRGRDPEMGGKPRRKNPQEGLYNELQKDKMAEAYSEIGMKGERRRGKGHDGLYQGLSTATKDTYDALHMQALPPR
T4 sequence (chain, as listed by the source): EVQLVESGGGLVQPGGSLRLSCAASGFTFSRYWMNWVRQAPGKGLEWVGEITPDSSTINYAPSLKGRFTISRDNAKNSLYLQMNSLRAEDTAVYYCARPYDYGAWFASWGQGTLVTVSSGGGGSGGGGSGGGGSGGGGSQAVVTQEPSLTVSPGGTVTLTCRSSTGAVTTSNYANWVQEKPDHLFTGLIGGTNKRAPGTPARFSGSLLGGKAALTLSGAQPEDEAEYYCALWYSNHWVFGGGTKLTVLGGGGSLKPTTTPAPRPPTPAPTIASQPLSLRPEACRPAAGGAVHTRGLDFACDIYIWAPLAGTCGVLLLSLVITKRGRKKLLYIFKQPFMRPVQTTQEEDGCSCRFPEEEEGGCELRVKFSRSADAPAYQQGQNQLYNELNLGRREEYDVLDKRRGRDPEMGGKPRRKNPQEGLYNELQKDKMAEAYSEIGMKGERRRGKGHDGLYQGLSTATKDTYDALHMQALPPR

B1: anti-CD20 (GA101) P329G LALA IgG1 (antibody)
heavy: not shown
light: DIVMTQTPLSLPVTPGEPASISCRSSKSLLHSNGITYLYWYLQKPGQSPQLLIYQMSNLVSGVPDRFSGSGSGTDFTLKISRVEAEDVGVYYCAQNLELPYTFGGGTKVEIKRTVAAPSVFIFPPSDEQLKSGTASVVCLLNNFYPREAKVQWKVDNALQSGNSQESVTEQDSKDSTYSLSSTLTLSKADYEKHKVYACEVTHQGLSSPVTKSFNRGEC
For B1, the “EC50 of NFAT-luciferase activation of anti-P329G CAR Jurkat cells, WSUDLCL2 target cells (5:1); VH1 x VL1” value in [1] amounted to 8.1 pM. The “EC50 of NFAT-luciferase activation of anti-P329G CAR Jurkat cells, WSUDLCL2 target cells (5:1); table row VH2 x VL1” value in experiment [2] is roughly 6.93 pM. Besides, the “EC50 of NFAT-luciferase activation of anti-P329G CAR Jurkat cells, WSUDLCL2 target cells (5:1); VL1 x VH 3” value in experiment [3] was roughly 6.58 pM. Besides, the “EC50 of NFAT-luciferase activation of anti-P329G CAR Jurkat cells, WSUDLCL2 target cells (5:1); VH3 x VL1” value in [4] stood at 7.57 pM.

B2: anti-CD20 (GA101) wild type IgG1 (antibody)
heavy: not shown
light: B1 light
notes: also called WT GA101
Regarding B2, in [5], the “EC50 of NFAT-luciferase activation of anti-P329G CAR Jurkat cells, WSUDLCL2 target cells (5:1); curve flat at 50-150 RLU/s, fit without meaning; VH1 x VL1” value was roughly 2.19 pM. The “EC50 of NFAT-luciferase activation of anti-P329G CAR Jurkat cells, WSUDLCL2 target cells (5:1); curve flat at 50-150 RLU/s, fit without meaning; VL1 x VH 3” value in experiment [6] is roughly 78.3 pM. The “EC50 of NFAT-luciferase activation of anti-P329G CAR Jurkat cells, WSUDLCL2 target cells (5:1); curve flat at 50-150 RLU/s, fit without meaning; VH3 x VL1” value in [7] is roughly 85 pM. Further, the binding result in experiment [8], in experiment [9], in experiment [10] and in experiment [11] was “no binding (tested: just below 10^2 nM (67 nM per paragraph 404))” in each case.

B3: anti-CD20 (GA101) heterodimeric IgG1 (antibody)
heavy 1: QVQLVQSGAEVKKPGSSVKVSCKASGYAFSYSWINWVRQAPGQGLEWMGRIFPGDGDTDYNGKFKGRVTITADKSTSTAYMELSSLRSEDTAVYYCARNVFDGYWLVYWGQGTLVTVSSASTKGPSVFPLAPSSKSTSGGTAALGCLVKDYFPEPVTVSWNSGALTSGVHTFPAVLQSSGLYSLSSVVTVPSSSLGTQTYICNVNHKPSNTKVDKKVEPKSCDKTHTCPPCPAPELLGGPSVFLFPPKPKDTLMISRTPEVTCVVVDVSHEDPEVKFNWYVDGVEVHNAKTKPREEQYNSTYRVVSVLTVLHQDWLNGKEYKCKVSNKALGAPIEKTISKAKGQPREPQVYTLPPCRDELTKNQVSLWCLVKGFYPSDIAVEWESNGQPENNYKTTPPVLDSDGSFFLYSKLTVDKSRWQQGNVFSCSVMHEALHNHYTQKSLSLSP
heavy 2: QVQLVQSGAEVKKPGSSVKVSCKASGYAFSYSWINWVRQAPGQGLEWMGRIFPGDGDTDYNGKFKGRVTITADKSTSTAYMELSSLRSEDTAVYYCARNVFDGYWLVYWGQGTLVTVSSASTKGPSVFPLAPSSKSTSGGTAALGCLVKDYFPEPVTVSWNSGALTSGVHTFPAVLQSSGLYSLSSVVTVPSSSLGTQTYICNVNHKPSNTKVDKKVEPKSCDKTHTCPPCPAPELLGGPSVFLFPPKPKDTLMISRTPEVTCVVVDVSHEDPEVKFNWYVDGVEVHNAKTKPREEQYNSTYRVVSVLTVLHQDWLNGKEYKCKVSNKALPAPIEKTISKAKGQPREPQVCTLPPSRDEL
light: B1 light
modifications: defucosylated
Take B3: the “EC50 (read off the curve); NFAT-luciferase, anti-P329G CAR Jurkat reporter cells (panel title murinPG-Fab-CAR activation) with WSUDLCL2 CD20+ target cells” value in the experiment with murinPG-Fab-CAR is roughly 20 pM.

B4: anti-CD20 (GA101) LALA IgG1 (antibody)
heavy: not shown
light: B1 light
On to B4, for which the “EC50 of NFAT-luciferase activation of anti-P329G CAR Jurkat cells, WSUDLCL2 target cells (5:1); curve flat at 60-150 RLU/s, fit without meaning; VH1 x VL1” value in experiment [12] is roughly 0.0485 pM. Also, the “EC50 of NFAT-luciferase activation of anti-P329G CAR Jurkat cells, WSUDLCL2 target cells (5:1); curve flat at 60-150 RLU/s, fit without meaning; VL1 x VH 3” value in experiment [13] was roughly 0.000234 pM. Besides, the binding result in experiment [14], in experiment [15], in experiment [16] and in experiment [17] was “no binding (tested: just below 10^2 nM (67 nM per paragraph 404))” in each case.
